This note sets out measurements from the supplement of paper PMC9170038.

The subject of one data set is MS2 coat protein. The data set is described as follows: apparent KD of MS2 coat protein; higher = weaker reporter binding. The note with it: Eterna round: R107. On the procedure:
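RNA-MaP round R107: designed RNA switches with theophylline, tryptophan, arginine or FMN aptamers are transcribed on-chip within common flanks. They are titrated with SNAP-549-labelled MS2 coat protein in RNA-MaP buffer (100 mM Tris pH 7.5, 80 mM KCl, 4 mM MgCl2), without ligand or with the indicated ligand. Median apparent KD per design.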

Data set [1] relates to K4 kissing-loop RNA reporter. The data set is described as follows: apparent KD of K4 kissing-loop reporter; higher = weaker reporter binding. The following applies: Eterna round: R107. On the procedure:
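RNA-MaP round R107: designed RNA switches with theophylline, tryptophan, arginine or FMN aptamers are transcribed on-chip within common flanks. They are titrated with a labelled K4 kissing-loop RNA reporter in RNA-MaP buffer (100 mM Tris pH 7.5, 80 mM KCl, 4 mM MgCl2), without ligand or with the indicated ligand. Median apparent KD per design.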

[2] abbreviates: input ligand: theophylline 20 uM.
Where [3] appears, read: input ligand: theophylline 2 mM.
Where [4] appears, read: input ligand: tryptophan 2.4 mM.
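For apparent KD of K4 kissing-loop reporter in this document: bound reporter read as fluorescence of individual clusters on recovered sequencing chips by microscopy, with normalized cluster intensities fitted with a binding model.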

Regarding “AAAACAUGAGGAUCACCCAUGUACAUGGGUCGAGGACCGGUACGGCCGCCACUCGCCGCCCGCCCGCCCGCCACCUCUCCCGCCC”, the “apparent KD of MS2 coat protein” value came out at 34.7 nM with MS2 coat protein (input ligand: arginine 13.2 mM), 173 nM with MS2 coat protein (setting [2]) and 160 nM in the data set on MS2 coat protein (setting [3]).

Turning to “AAAACGCAACUCGAUACCAGUACACUGAGUCUUCGCCACGACAUGAGGAUCACCCAUGUGUACCCUUGGCAGCGACAGAGCCACA [theeternabot_exclusion_MS2_Theo_B_42]”, the results for the “apparent KD of MS2 coat protein” value with MS2 coat protein (input ligand: arginine 13.2 mM), in the data set on MS2 coat protein (setting [2]) and in the data set on MS2 coat protein (setting [4]) were 43.4 nM, 84.9 nM and 57.7 nM, respectively.

Consider “AAAAUCCUACCUGAGGAUCACCCAGGUGAAGGAGCGCCCGAAAGGGCAGGUAGGUCGCACCUGAGGAUCACCCUGGUAACCUAAA [ArgEX 11 #DoubleMS2 #OpenEnded #AlternativeMS2]”, for which the “apparent KD of MS2 coat protein” value with MS2 coat protein (input ligand: arginine 13.2 mM) is 28.1 nM; in the data set on MS2 coat protein (input ligand: none) it was 48 nM; in the data set with MS2 coat protein (setting [2]) it was 69 nM; in the data set on MS2 coat protein (setting [3]), 51.7 nM; with MS2 coat protein (setting [4]), 38.6 nM.

In the case of “AAAAUCCUACCUGAGGAUCACCCUGGUGAAGGAGCGCCCGAAAGGGCAGGUAGGUCGCACCUGAGGAUCACCCAGGUAACCUAAA [ArgEX 13 #DoubleMS2 #OpenEnded #AlternativeMS2]”, the “apparent KD of MS2 coat protein” value turned out to be 31.7 nM in the data set with MS2 coat protein (input ligand: arginine 13.2 mM); 49.2 nM in the data set with MS2 coat protein (input ligand: none); 40.7 nM in the data set on MS2 coat protein (setting [2]); 44.1 nM in the data set on MS2 coat protein (setting [3]); 47 nM with MS2 coat protein (setting [4]).

For the sequence “AAAAUCCUACCUGAGGAUCACCCUGGUGAAGGAGCGCCCGAAAGGGCAGGUAGGUCGCACCUGAGGAUCACCCUGGUAAACCUAA [ArgEX 24 #DoubleMS2 #OpenEnded]”, the “apparent KD of MS2 coat protein” value with MS2 coat protein (input ligand: arginine 13.2 mM) was 31.6 nM; with MS2 coat protein (input ligand: none), 51.4 nM; in the data set on MS2 coat protein (setting [2]), 40.3 nM; in the data set with MS2 coat protein (setting [3]), 44.9 nM; with MS2 coat protein (setting [4]), 46.3 nM.

With “AAACAUUGCUCAGAUACCAGACAUGAGGAUCACCCAUGUACCAAGGUACCCGAAAGGAAUGUCCCUUGGCAGCUGAGCAAUGAAA [MAT - Exclusion Theophlline B - Mod of Eli - D20]”, the “apparent KD of MS2 coat protein” value came to 10.9 nM with MS2 coat protein (input ligand: arginine 13.2 mM), 11.9 nM in the data set on MS2 coat protein (setting [2]) and 9.51 nM in the data set with MS2 coat protein (setting [4]).

As for “AAACGCCACGGAAGGAGCGACAUGAGGAUCACCCAUGUAGACGUGGCGGAUGCACCCUCCUGUCAGGUAGGUCGCCGUGCGCCAA [Engebite]”, the “apparent KD of MS2 coat protein” value in the data set with MS2 coat protein (input ligand: arginine 13.2 mM) was found to be 10.9 nM; with MS2 coat protein (input ligand: none), 11 nM; with MS2 coat protein (setting [2]) it was 15.5 nM; in the data set with MS2 coat protein (setting [3]), 12.2 nM; with MS2 coat protein (setting [4]) it was 11.2 nM.

Consider “AAACGCUAUGCGGCCGCCACUAAGGUUGGCGUCUAUGUCGUUUAAGACAUGAGGAUCACCCAUGUUAGGACCGGGCAUGUCCGCG [theeternabot_exclusion_MS2_Trp_B_25]”, for which the “apparent KD of MS2 coat protein” value with MS2 coat protein (input ligand: arginine 13.2 mM) is 19.1 nM; with MS2 coat protein (setting [2]), 22.9 nM; with MS2 coat protein (setting [3]), 22.4 nM.

Take “UUGGAAAGACCAGAACAGGGCCUUAUCUGGGAGGAUAUGCUGGAGGGCAGAAGGCCCAGUGAUGUUGGGCCUUGUGCUCGUUCUA [Ainanti]”: the “apparent KD of K4 kissing-loop reporter” value turned out to be 165 nM in data set [1] (input ligand: FMN 200 uM); 125 nM in data set [1] (input ligand: arginine 13.2 mM); 139 nM in data set [1] (input ligand: none); 137 nM in data set [1] (setting [2]); 145 nM in data set [1] (setting [4]).

For “UUGGGCGAGGUAACGUGGAUAUCUCGUCGCAAGGAUAUCUGGAAACAGAGAAGGUGCUACAUUACCGGCAGUGAUGUUGCUGACC”, the “apparent KD of K4 kissing-loop reporter” value is 418 nM in data set [1] (input ligand: FMN 200 uM); 101 nM in data set [1] (input ligand: arginine 13.2 mM); 555 nM in data set [1] (input ligand: none); 347 nM in data set [1] (setting [2]); 121 nM in data set [1] (setting [4]).

Take “UUGUUUGGUUGAGAGGUUGGGCGAGAUGAUACCAGUAGAGAAGAAUACCCUUGGCAGCAUAAGAAAGAUAUAGUGAUGUUGUAUA [SSTheophA.O]”: the “apparent KD of K4 kissing-loop reporter” value in data set [1] (input ligand: FMN 200 uM) is 538 nM; in data set [1] (input ligand: arginine 13.2 mM) it was 356 nM; in data set [1] (input ligand: none), 490 nM; in data set [1] (setting [2]) it was 529 nM; in data set [1] (setting [4]) it was 475 nM.

“UUGUUUGGUUGAGAGGUUGGGCGAGAUGAUACCAGUAUAGUAGAGUACCCUUGGCAGCAUAGGAGAGAUAUAGUGAUGUUGUAUG [SSTheophA.U]”: the “apparent KD of K4 kissing-loop reporter” value was found to be 390 nM in data set [1] (input ligand: FMN 200 uM); 302 nM in data set [1] (input ligand: arginine 13.2 mM); 477 nM in data set [1] (input ligand: none); 482 nM in data set [1] (setting [2]); 381 nM in data set [1] (setting [4]).

For “UUGUUUGGUUGAGAGGUUGGGCGAGAUGAUACCAGUAUAGUAUUGUACCCUUGGCAGCAUAUGAGAGAUAUAGUGAUGUUGUAUG [SSTheophA.X]”, the “apparent KD of K4 kissing-loop reporter” value in data set [1] (input ligand: FMN 200 uM) is 521 nM; in data set [1] (input ligand: arginine 13.2 mM), 358 nM; in data set [1] (input ligand: none), 529 nM; in data set [1] (setting [2]) it was 532 nM; in data set [1] (setting [4]), 411 nM.

With “UUGUUUUACUGAAGGAGCGGCAAUUGAUACGUAGAUAUAGUGAUGUUAUAUAAGAUAGAGAGCCAGGUAGGUCGCAGAGGUGUUU [ExArgB.S]”, the “apparent KD of K4 kissing-loop reporter” value in data set [1] (input ligand: FMN 200 uM) amounted to 176 nM; in data set [1] (input ligand: arginine 13.2 mM) it was 150 nM; in data set [1] (input ligand: none), 210 nM; in data set [1] (setting [2]) it was 180 nM; in data set [1] (setting [4]) it was 168 nM.

On to “UUUAAACAUAGUGAUGUUAUGUAACAGUGACGAGGACCGGUACGGCCGCCACUCGAGAGAGAUAGUGGUCAUGCAAAUGUAUGCC [#16 K4 Tryptophan A Same State]”, for which the “apparent KD of K4 kissing-loop reporter” value in data set [1] (input ligand: FMN 200 uM) stood at 145 nM; in data set [1] (input ligand: arginine 13.2 mM) it was 167 nM; in data set [1] (input ligand: none) it was 123 nM; in data set [1] (setting [2]), 136 nM; in data set [1] (setting [4]) it was 137 nM.

For the sequence “UUUAAAUAUAGUGAUGUUAUAUAACAAUGACGAGGACCGGUACGGCCGCCACUCGAGAGAGAUAAUGGUAAAAUAAAUAAUUUUC [AstrosSSTryA#3]”, the “apparent KD of K4 kissing-loop reporter” value in data set [1] (input ligand: FMN 200 uM) turned out to be 395 nM; in data set [1] (input ligand: arginine 13.2 mM), 585 nM; in data set [1] (input ligand: none), 709 nM; in data set [1] (setting [2]) it was 783 nM; in data set [1] (setting [4]), 389 nM.

Regarding “UUUAACGAGUGAUGUUCGAAGAGUAAGGGUGAGGAUAUCGAUUUUUCGAGAAGGCGCCUCGAAGUGAUACGAAAGUAUCGCUUCG [FMN A 7]”, the “apparent KD of K4 kissing-loop reporter” value came to 246 nM in data set [1] (input ligand: FMN 200 uM); 224 nM in data set [1] (input ligand: arginine 13.2 mM); 269 nM in data set [1] (input ligand: none); 269 nM in data set [1] (setting [2]); 215 nM in data set [1] (setting [4]).

For the sequence “UUUAUAAAGUCGGCCGCCACUGGAUUUAUAUUUGUUUCGUCUGGAUCAAAGUGAUGUUUUGAGUCCAGGACCGGGACAUUUGUUA [whbob_Ex_Tryp_B_w37]”, the “apparent KD of K4 kissing-loop reporter” value in data set [1] (input ligand: FMN 200 uM) was 80.7 nM; in data set [1] (input ligand: arginine 13.2 mM), 71.1 nM; in data set [1] (input ligand: none), 74.6 nM; in data set [1] (setting [2]) it was 69.1 nM; in data set [1] (setting [4]) it was 93.2 nM.

As for “UUUAUAAAGUCGGCCGCCACUGGUUUUAUUUUUGUUUAAUCUGGAUCAUAGUGAUGUUAUGAGACCAGGACCGGGACAUUUGUUA [#08 K4 Tryptophan B Exclusion]”, the “apparent KD of K4 kissing-loop reporter” value in data set [1] (input ligand: FMN 200 uM) worked out at 89.5 nM; in data set [1] (input ligand: arginine 13.2 mM), 86 nM; in data set [1] (input ligand: none) it was 88.2 nM; in data set [1] (setting [2]), 93.8 nM; in data set [1] (setting [4]) it was 132 nM.

For “UUUAUAGUGACGGCCGCCACUAUAUUAAUGUUUAGGUUAGAGUGAUGUUUUGAUUAAUAUUUUUAUAGGACCGGGUUAUAUGUUU [ggbvmullin]”, the “apparent KD of K4 kissing-loop reporter” value was 669 nM in data set [1] (input ligand: FMN 200 uM); 488 nM in data set [1] (input ligand: arginine 13.2 mM); 632 nM in data set [1] (input ligand: none); 515 nM in data set [1] (setting [2]); 591 nM in data set [1] (setting [4]).
